Tests used:
[1] = biological target: Pin1 (wild-type, SEQ ID NO:1) (human) (UniProt Q13526); test: cell-based or functional assay
[2] = biological target: Pin1 R14A (SEQ ID NO:2) (human) (UniProt Q13526); test: cell-based or functional assay

phosphokinase A (PKA) (enzyme) showed an MALDI-TOF mass increase after PKA treatment [1] of 160 Daltons and an MALDI-TOF mass increase after PKA treatment [2] of 90 Daltons.

Source: patent publication US20060074222A1
